Residue numbers refer to the chain shown, from its start.
B1: chimpanzee Fab 7G4 (Fab, V domains shown)
VH: EVQLLESGGGLVQPGGSLTLSCAASGFTFSSYWMHWVRQAPGKGPEWVALIKKDGSEKYYAESVKGRFTISRDNAKNSLYLQMNSLRAEDTAVYYCTRRITTLTVISDAFDIWGQGTMVTVSS
VL: ELTQSPSTLSASVGDRVTITCRASQGISSWLAWYQQKPGKAPKFLIYKASSLESGVPSRFSGSGSGTEFTLTISSLQPDDFATYYCQQYGSYPLTFGPGTKVDIKR
B2: chimpanzee Fab 3C1 (Fab, V domains shown)
VH: EVQLLESGAEVKKPGGSVKVSCKVSGGTLSSYGISWVRQAPGQGPEWMGVIIPIRGTANYAQKFQGRVTYTADESTSTVYMELSSLRSEDTAVYYCATGRRGRYPTGSFDYWGQGALVTVSS
VL: ELQMTQSPSTLSASVGDRVTVTCRASEDLNKWLAWYQQKPGKAPKLLIYKASSLESGVPSRFSGSGSGTEFTLTISSLQPDDFATYYCQQYQSYPYTFGPGTKLEIKR
B3: chimpanzee Fab 3E4 (Fab, V domains shown)
VH: VQLLEQSGAEVKKPGGSVKVSCKVSGGTFSRNPISWVRQAPGQGLEWMSVIVPIVGTTKHAQKFQGRVTITADESTSTAYMELSSLRSEDTAVYYCATYRRYADVSSYSEYWGQGTLVTVSS
VL: ELTQSPLSLPVTLGQPASISCRSSQNLVHSDGNTYLSWIQQRPGQPPRLLIYKVSNRDSGVPDRFSGSGAGTDFTLKITRVEAEDVGLYYCVQGVQFPITFGQGTKLEIKR
B4: chimpanzee Fab 1B2 (Fab, V domains shown)
VH: EVQLLESGPGLVKPSQTLSLTCAVSGGSITSDHYFWSWMRQAPGRGLEWIGYISYRGTTYYNPSLKSRVTMSVTAAKNTLYLQMDGLRPEDTAVYYCARASVTAGMPAAGTLDHWGQGTLVTVSS
VL: ELQMTQSPSSLSASVGDRVTITCRASQGISSELNWYQQKPGKAPKLLIYDASSLESGVPSRFSGSGSGTDFTLTISSLQPEDFATYYCQHFNSFPWTFGQGTKLEIKR
B5: chimpanzee Fab 2H7 (Fab, V domains shown)
VH: EVQLLESGGGLVQPGGSRRLSCAASGFTISDNVMHWVRQAPGKGLEWVALIYSADSTHYADSVKGRFTISRDNSKNTLYLQMDGLRPEDTAVYYCAREYCTGGTCFAHFDYWGQGTLVTVSS
VL: ELQMTQSPSSLSASVGDRVTITCRASQSITNYLSWYQQKPGKAPKLLISYSSTLQSGVPSRFSGSGSGTDFTLTISSLQPEDFATYYCHYGYGTHTFGPGTKVDIKR
B6: chimpanzee Fab 3A2 (Fab, V domains shown)
VH: B5 VH with E1V, V2Q, Q3L, L5E, E6Q, A24V, S56T, G84S
VL: ELTQSPSSVSASVGDTVTIACRASQSITNYLSWYQQKPGKAPKLLIYHASTLQSGIPSRFSGSGSGTDFTLTISSLQPDDFATYYCHYGYGTHTFGQGTKLEIKR
B7: chimpanzee Fab 1A10 (Fab, V domains shown)
VH: VQLLEESGAEVKKPGSSVKVSCKVSGGTFSRNPISWVRQAPGQGLEWMGVIVPIVGTTKHAQKFQGRVTIIADESTSTAYMELSSLRSEDTAVYYCATYYADGSSYSEYWGQGTLVTVSS
VL: ELQMTQSPLSLSVAPGQPASISCKSSQSLLHSDGNTYLFWYLQKSGQSPQLLIYGLSNRASGVPDRFSGSGSGTDFTLKISQVEAEDVGVFYCMQGTQLPYTFGQGTKLEIKR

These binders were tested against T1, dengue type 4 virus (DENV-4), strain 814669, virions (dengue type 4 virus, UniProt P09866 280-774; P09866 114-279) (assay: cell-based or functional assay).

Row | Binder | PRNT50 titer [µg/mL]
1 | B1 | 121
2 | B2 | > 200
3 | B3 | 91

Each binder was assayed against DENV-4 prM glycoprotein (dengue type 4 virus, UniProt P09866 114-279) (assay: radioimmunoprecipitation of prM expressed alone by recombinant vaccinia virus).

Row | Binder | binding result
4 | B1 | no binding
5 | B3 | no binding

Each binder was assayed against T2, dengue type 2 virus (DENV-2), prototype New Guinea C strain, virions (dengue type 2 virus, UniProt P14340 281-775; P14340 115-280) (assay: ELISA, virion-coated plate, Fab from ~300 µg/ml).

Row | Binder | ELISA titer of Fab binding
6 | B1 | 4.01 log10 of reciprocal dilution
7 | B2 | 3.11 log10 of reciprocal dilution
8 | B3 | 4.31 log10 of reciprocal dilution

The binders below were run against T3, dengue type 3 virus (DENV-3), strain H87, virions (dengue type 3 virus, UniProt P27915 281-773; P27915 115-280) (assay: ELISA, virion-coated plate, Fab from ~300 µg/ml).

Row | Binder | ELISA titer of Fab binding
9 | B1 | 4.01 log10 of reciprocal dilution
10 | B2 | 1.3 log10 of reciprocal dilution
11 | B3 | 4.61 log10 of reciprocal dilution

What follows are binders tested against T4, dengue type 1 virus (DENV-1), Western Pacific strain, virions (dengue type 1 virus, UniProt P17763 281-775; P17763 115-280) (assay: ELISA, virion-coated plate, Fab from ~300 µg/ml).

Row | Binder | ELISA titer of Fab binding
12 | B1 | 4.01 log10 of reciprocal dilution
13 | B2 | 1.3 log10 of reciprocal dilution
14 | B3 | 4.61 log10 of reciprocal dilution

Each binder was assayed against T1, dengue type 4 virus (DENV-4), strain … (assay: ELISA, virion-coated plate, Fab from ~300 µg/ml).

Row | Binder | ELISA titer of Fab binding
15 | B1 | 4.01 log10 of reciprocal dilution
16 | B2 | 3.71 log10 of reciprocal dilution
17 | B3 | 4.61 log10 of reciprocal dilution

These binders were tested against T2, dengue type 2 virus (DENV-2), prototype … (assay: ELISA, virion-coated plate, Fab from ~140 µg/ml).

Row | Binder | ELISA titer of Fab binding
18 | B4 | 3.8 log10 of reciprocal dilution
19 | B5 | 3.8 log10 of reciprocal dilution
20 | B6 | 3.8 log10 of reciprocal dilution
21 | B7 | 3.8 log10 of reciprocal dilution
22 | B3 | 3.8 log10 of reciprocal dilution

The binders below were run against T3, dengue type 3 virus (DENV-3), strain … (assay: ELISA, virion-coated plate, Fab from ~140 µg/ml).

Row | Binder | ELISA titer of Fab binding
23 | B4 | 3.8 log10 of reciprocal dilution
24 | B5 | 3.6 log10 of reciprocal dilution
25 | B6 | 3.8 log10 of reciprocal dilution
26 | B7 | 3.6 log10 of reciprocal dilution
27 | B3 | 3.6 log10 of reciprocal dilution

Each binder was assayed against T4, dengue type 1 virus (DENV-1), Western … (assay: ELISA, virion-coated plate, Fab from ~140 µg/ml).

Row | Binder | ELISA titer of Fab binding
28 | B4 | 3.9 log10 of reciprocal dilution
29 | B5 | 4.1 log10 of reciprocal dilution
30 | B6 | 4.1 log10 of reciprocal dilution
31 | B7 | 4.1 log10 of reciprocal dilution
32 | B3 | 4 log10 of reciprocal dilution

Each binder was assayed against T1, dengue type 4 virus (DENV-4), strain … (assay: ELISA, virion-coated plate, Fab from ~140 µg/ml).

Row | Binder | ELISA titer of Fab binding
33 | B4 | 3.8 log10 of reciprocal dilution
34 | B5 | 3.8 log10 of reciprocal dilution
35 | B6 | 3.8 log10 of reciprocal dilution
36 | B7 | 3.8 log10 of reciprocal dilution
37 | B3 | 3.8 log10 of reciprocal dilution

These binders were tested against T2, dengue type 2 virus (DENV-2), prototype … (assay: cell-based or functional assay).

Row | Binder | PRNT50 titer [µg/mL]
38 | B4 | 3.13
39 | B5 | 0.33
40 | B6 | 1.33
41 | B7 | 5.26
42 | B3 | > 100

These binders were tested against T3, dengue type 3 virus (DENV-3), strain … (assay: cell-based or functional assay).

Row | Binder | PRNT50 titer [µg/mL]
43 | B4 | > 100
44 | B5 | 5.92
45 | B6 | 2.99
46 | B7 | 26.3
47 | B3 | > 100

These binders were tested against T4, dengue type 1 virus (DENV-1), Western … (assay: cell-based or functional assay).

Row | Binder | PRNT50 titer [µg/mL]
48 | B4 | 0.5
49 | B5 | 0.26
50 | B6 | 0.37
51 | B7 | 0.94
52 | B3 | 42.7

Target: T1, dengue type 4 virus (DENV-4), strain …
Assay: cell-based or functional assay
Remark: another data set of the same source

Row | Binder | PRNT50 titer [µg/mL]
53 | B4 | 29.2
54 | B5 | 7.26
55 | B6 | 4.71
56 | B7 | 12.6
57 | B3 | 40.5

What follows are binders tested against T5, DENV-4 E glycoprotein (dengue type 4 virus, UniProt P09866 280-774) (assay: radioimmunoprecipitation of E expressed alone by recombinant vaccinia virus).
T5 construct: also called vDENV-4 E product

Row | Binder | binding result
58 | B2 | no binding

From patent publication US20070134256A1 (US Dept. of Health and Human Services, published 2007)
